This note sets out measurements from patent EP4707393A1, “DOUBLE-STRANDED SIRNA, CONJUGATE THEREOF AND USE THEREOF” (CMS Research & Development Pte. Ltd., priority 2023, dated 2024).

The subject of one series is hPBMCs. The experiment in a line: Immunogenicity test in hPBMCs (IL-6 and TNF-α ELISA of supernatant). The class given is cell-based, human. To be noted: 18-20 h. The procedure, abridged: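 siRNA conjugates, three-fold serially diluted in water then 10-fold in 1640 medium (5.0% water final), were added in duplicate to PBMCs at 1.6 × 10^6/mL and incubated 18-20 h at 37 °C. TNF-α and IL-6 in supernatant were measured by ELISA; LPS served as positive control.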

Series [1] concerns human LPA gene (Genbank number: NM_005577.4). The experiment in a line: Inhibitory activity against LPA mRNA, psiCHECK-2 dual-luciferase reporter vector in Huh7 cells. The class given is cell-based. To be noted: Huh7 cells transfected with LPA_psiCHECK-2 plasmid, RNAiMAX transfection. Summed up: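 Huh7 cells transfected with psiCHECK-2 carrying human LPA, then treated next day with compounds (3 concentrations) delivered by RNAiMAX. Dual-Glo readout of firefly and Renilla luciferase per well. Percent inhibition calculated from the reporter ratio relative to the RNAiMAX control.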

On to “Z42: siRNA conjugate: sense SEQ ID NO:49, ligand D01 at 3' end of sense strand, antisense SEQ ID NO:80 (sense CAGCCCCTTATTGTTATACGA; antisense NCGTATNACAATAAGGGGCNGTT; ligand D01 at sense 3' end; listed as RNA; modified_base 1: mod_base = OTHER; note = 2'-O-methylcytidine; modified_base 2: mod_base = OTHER; note = 2'-O-methyladenosine; modified_base 3: mod_base = OTHER; note = 2'-O-methylguanosine; modified_base 4..7: mod_base = OTHER; note = 2'-O-me; note = n is B33; note = 2'-deoxycytidine; modified_base 4: mod_base = OTHER; note = 2'-O-methyluridine; m)”, for which the IL-6 in the series on hPBMCs (donor 1 hPBMCs, 5 µg/mL) worked out at 1298.3 pg/mL; in the series with hPBMCs (donor 1 hPBMCs, 15 µg/mL), 1406.8 pg/mL; with hPBMCs (donor 1 hPBMCs, 45 µg/mL), 1457.0 pg/mL. Further, the TNF alpha with hPBMCs (donor 1 hPBMCs, 5 µg/mL) was 35.8 pg/mL; in the series on hPBMCs (donor 1 hPBMCs, 15 µg/mL) it was 34.8 pg/mL; in the series with hPBMCs (donor 1 hPBMCs, 45 µg/mL) it was 39.4 pg/mL. Besides, the EC50 in series [1] is 0.31 nM.
In the case of “Z46: siRNA conjugate: sense SEQ ID NO:43, ligand D01 at 3' end of sense strand, antisense SEQ ID NO:66 (sense CAGCCCCTTATTGTTANACGA; antisense TCTCGTATNACAATAAGGGGCTG; ligand D01 at sense 3' end; listed as RNA; modified_base 1: mod_base = OTHER; note = 2'-O-methylcytidine; modified_base 2: mod_base = OTHER; note = 2'-O-methyladenosine; modified_base 3: mod_base = OTHER; note = 2'-O-methylguanosine; modified_base 4..7: mod_base = OTHER; note = 2'-O-me; note = 2'-O-methyluridine; modified_base 4: mod_base = OTHER; note = 2'-fluorocytidine; modified_base 5: mod_base = OTHER; note = 2'-O-methylg)”, the IL-6 in the series on hPBMCs (donor 2 hPBMCs, 5 µg/mL) is reported as 15.0 pg/mL; with hPBMCs (donor 2 hPBMCs, 15 µg/mL), 88.8 pg/mL; in the series on hPBMCs (donor 2 hPBMCs, 45 µg/mL), 9.3 pg/mL. The TNF alpha with hPBMCs (donor 2 hPBMCs, 5 µg/mL) amounted to 8.1 pg/mL; with hPBMCs (donor 2 hPBMCs, 15 µg/mL) it was 22.8 pg/mL; in the series on hPBMCs (donor 2 hPBMCs, 45 µg/mL), 10.2 pg/mL. The substance further displayed a concentration giving a half-maximal response (EC50) in series [1] of 0.31 nM.
